Target: the molecule itself
Experiment: cryo-EM structure; single-particle cryo-EM of purified cASIC1-SMA at ~1 mg/ml, pH adjusted to 7.0 with MES pH 6.0, TBS with 1 mM DTT; low pH desensitized state; C3 symmetry in the final refinement

B1: full-length chicken acid-sensing ion channel 1 (cASIC1) solubilized in styrene maleic acid copolymer (natural protein, Gallus gallus (chicken), UniProt Q1XA76 1-527, looked up)
chain: MMDLKVDEEEVDSGQPVSIQAFASSSTLHGISHIFSYERLSLKRVVWALCFMGSLALLALVCTNRIQYYFLYPHVTKLDEVAATRLTFPAVTFCNLNEFRFSRVTKNDLYHAGELLALLNNRYEIPDTQTADEKQLEILQDKANFRNFKPKPFNMLEFYDRAGHDIREMLLSCFFRGEQCSPEDFKVVFTRYGKCYTFNAGQDGKPRLITMKGGTGNGLEIMLDIQQDEYLPVWGETDETSFEAGIKVQIHSQDEPPLIDQLGFGVAPGFQTFVSCQEQRLIYLPPPWGDCKATTGDSEFYDTYSITACRIDCETRYLVENCNCRMVHMPGDAPYCTPEQYKECADPALDFLVEKDNEYCVCEMPCNVTRYGKELSMVKIPSKASAKYLAKKYNKSEQYIGENILVLDIFFEALNYETIEQKKAYEVAGLLGDIGGQMGLFIGASILTVLELFDYAYEVIKHRLCRRGKCRKNHKRNNTDKGVALSMDDVKRHNPCESLRGHPAGMTYAANILPHHPARGTFEDFTC
notes: the final models contain residues 17-462; Homotrimer in SMA copolymer with endogenous lipids; Expression is 'as previously described (Yoder et al., 2018a)'; also called cASIC1-SMA; SMA-cASIC1a
  stoichiometry N: 3

— PMC7308080, “The His-Gly motif of acid-sensing ion channels resides in a reentrant ‘loop’ implicated in gating and ion selectivity” (eLife, 2020)
